Test: soluble on expression in E. coli; label from the status in PepcDB or PDB records

Sequence | soluble on expression in E. coli
MGSDKIHHHHHHMNSIVNDLNRALAQHLLVNVYQTNQEVVYTGYVTTVSDTGIILATYDDYGIPDGAVFLDLTAIDEVEFSSDDLDNMAFRIQTAQDEQFVQAGGLTLQFDGHRDLKRQVLSHAWVDHLVLMLVLKDDEHFYEGIVTSVAAEQVSLQLLNKFDYTDQPLLTLTPKDIEVIEFQGQELTLQGIALPHLQKLSHVAPTTVTDADQFVPTLQQLVGKEPLVALVPKHNRELFFVGRINTVTADGVIMNLLDMTGQFGGYTLMRLSELHEIVLKSDYLQTMRLFALLNRARQQPIQPVLNDERLFDATVDQFGARISQAAAFRTIIRLKLHDGTDLLGFPSQVGGQRFIFHEIDDQQVDQVGQVYRLADVDEVAFGYLDAYLVERQLRVEGDL | not soluble
MGSDKIHHHHHHMNSSVKTRILQPLRIGKHIARHPIIQGAMAVRVSGAKLAGAVANAGGVGVIASLGLGLDSPYFDKRKKRSFFTANRLALIDELAKARSISPDGVIGVNILVATKDYSVLAQTAAAQGADIIITGAGLPLALPEYTAAYPDVALVPSVANLEAAQLICETWQSRYHRLPDALIVENCQQVGGHFTQCEQVNIPGFSLELVIRQLRDYCQNHLGARIPLIVSGGISDRTDIDRMIAIGADGVQIGTRFVTTVECDADQRYKDYHLQAQPEDIVTVPSPVGKPSRALHNLFTEQVMSNSSNLEKRCIANCLETCLCRDHGKTYCLLQALAQAARGDVENGLIFSGANAGYTQDIISVPELMTELTQAHTIEVSSSDKY | not soluble
MGSDKIHHHHHHMNVLIVSSSEGITLSLLRCLGLLNIKSHVISVWKSSGSSRFSRFCKNYISSFITESSQGAENIADVINDYCKQQKIDIIIPSGLLGTFLVALIKEKLSYSSVFPINDADKIYNLNNKWQFYHLLRQHNIPTPKTILIETPEQIKLLNLNFPVMVKPLDRGNGYGVKKIDSIVDLHGYISNASQINNLPILVQEYVFGYDILLNVLAENGKLIAWTINRRVPYFFEFFQDENILEIAHKIIDSCNYTGVANFDIRFDERSNSVKVIECNPRFWASFGASVSYGIDFVNLGILLAQGQKLPDNLKKEVTCTEPEKIPYPSPSQFLKGLLLAKYPFAAMKKISSDLAWQSILDPLPNIYEKIWNRLGIVNTHDGVMLNKLLSNSIRVKI | not soluble
MGSDKIHHHHHHMNYRDELILQWVNQQGKASVIELAQHCDISVETIRRDLNKLANKGLLHRTHGGAVSNKTKDLGSFFQTRKHINATAKRHIAQKALDLLYENAVIGLDASSTSWYFAYLMPDIPCTVVTNSMFNINALVNKSNVKTIVTGGVYSAKYEAFYGPLSEYLLQRLHINFSVFSCSGIDKNGNIWESNELNASLKRKMMEASERAYLLIDSSKFEKTSLIQLADLSKINTIFSDRSLPDNLQKYCEQHDIMTVL | not soluble
MGSDKIHHHHHHMPASSHQPLDLAKFTLSSPTEIAQHLSNIAKHGHMVTVFANKGKNFILTRLLEVDYQAGVFTFDWGAEEETNTQVLNSERNVFVCSPEGVKTQFVAGQISQVMVDDRPAFQCRLPEQVIKLQRREFFRIQTPLGSPVFCRIGDFNQRSIDLALFDISLGGMSLWLPGIDTPGFDIGQQYLQCSIDLKPFGTLALGIEVRHRLTARMRNGNEAMRIGCSYLNLSAPMETIIQRYVGFLERERRAMVG | not soluble
MGSDKIHHHHHHMPKLVTWMNNQRVGELTKLANGAHTFKYAPEWLASRYARPLSLSLPLQRGNITSDAVFNFFDNLLPDSPIVRDRIVKRYHAKSRQPFDLLSEIGRDSVGAVTLIPEDETVTHPIMAWEKLTEARLEEVLTAYKADIPLGMIREENDFRISVAGAQEKTALLRIGNDWCIPKGITPTTHIIKLPIGEIRQPNATLDLSQSVDNEYYCLLLAKELGLNVPDAEIIKAGNVRALAVERFDRRWNAERTVLLRLPQEDMCQTFGLPSSVKYESDGGPGIARIMAFLMGSSEALKDRYDFMKFQVFQWLIGATDGHAKNFSVFIQAGGSYRLTPFYDIISAFPVLGGTGIHISDLKLAMGLNASKGKKTAIDKIYPRHFLATAKVLRFPEVQMHEILSDFARMIPAALDNVKTSLPTDFPENVVTAVESNVLRLHGRLSREYGSK | not soluble
MGSDKIHHHHHHMPLDVDHLRIPALPQLFMELQNALGQPHVSYERIAAIVSKDPRLTASLLKLVNSPHFGFSTPIETVSRAVAASGIRRVSALALGTFVLGLYRERPPLVVDIQGFWLHSVGCGIAARLLAQRLGRSDPERFFVAGLLHDMGWLALCSAAPDRAERIVRRIQSTGCSCEEAERLELGTTHAELGATVLKTWNLPAFLIDVVRSHHAPLATVGDNPPVDGALEVHIADAVVKGMGIGGALDARIAPLDLDAVDTLGLSGHDIAAMTNGLVEQSQALSRLLQGD | not soluble
MGSDKIHHHHHHMPLLLKGSCRCNAVRFEVESHTPVPFMLCYCSICRKQQGGGGFAINLGAAYETLNIRGKRSLGVYRAEIEDDEHPHCEVSTGERNFCRKCGSALWLYDPTWPELVHPFASAIDSDLPKPPSRVHLMLKYKANWVEPVIGKGDKTFDVYPEESIADWHKLTGMWVD | not soluble
MGSDKIHHHHHHMPLMPTTLCSHAGCNARAVGNGVCRIHKPKAKRQAPNQIKQAEPAKLKRIDHRLSASQRGYDVRWRSARLLFLNDEPLCRHCITQDITKGADVVDHILPHRGNQELFWDQTNWQPLCYPCHSIKTTTVDNKLSDYDIAQLRQGGWGKK | not soluble
MGSDKIHHHHHHMPLPRGSSLVRIPGNIPVGLDMKERLAYFEYDPLVSGQRAYAVAALLPQGFTRTLLPACVGSSGEALLPLLGYAAVGLKEGKIYVAAVQSDEHRKWHPHYYNTERLPAKINRMLKKYPGNMILHQLARCSLEYGCFTAQNIFYQRWEGGIPSMKACNAACIACISEDHCGTASPQNRLDFAPTVQEIVEVASEHLLRARDAIISFGQGCEGEPALNGKRLSQAIRRIRDLCAQGTINMNTNAGYCEGVKLMTDAGMDSMRVTIFSAIEENYMTYHCPQDYSLADVEYSITYAREHGVKISLNLLTFPGFTDRMEEVEALLEFVRKNQVDMIQFRNLNIDPEFLMRIFPGKSPVLGISNFVKLLESELPGVRIGSYTHPVHR | not soluble
MGSDKIHHHHHHMPLSMNREVFITCAVTGSGGTQDRSPHVPRSPKEIAESAIAAAKAGAAIVHCHVRDPETGAPSRDLGLYREVTDRIRESDTDVVLNLTAGMGGDIVFGGVERPLPVTEDGTDMIGASARVAHVAECLPEICTLDCGTMNFAEADYVMTNTPGMLQAMGQMMTDLGVKPEIEAFDTGHLWYAKQLVKDGVLKSDALVQLCMGVPWGAPNDLNTFMAMVNNVPDDWNWSAFSLGRDQMAYVAASVLAGGNVRVGLEDNLYLDKGVLAENWQLVERAGTIVSNLGARVITPAEVREKLGLQKRAPITK | not soluble
MGSDKIHHHHHHMPLTNHTPEDRVQDIFDHIAPQYDQMNSVISLGTHHWWRQRVMQAMTLHAGDFALDVCCGTGDWTIALAQAVGPAGHVVGFDFSGVMLQHATTKVRQAQLDDRITLRQGDAMQLPYPDNYFNVVTIGFGLRNVPDATQVLREMARVVKPGGQVVCLETSQPTNPLVHAGWQVYFGHVVPLMGRLAHHYQAYNYLQSSTHHFVSAKELSRLFTAAGLTQVHYDLFNLGAAAVHWGRKPY | not soluble
MGSDKIHHHHHHMPLYRHLDLQSRYVTSRPVDVWLPAATGDQPLPVIYMHDGQNLFDPTLRADGEVWAVDQAIERLCATYNWPGAIVVGVWCTDQRWREYAPQKPFAALRQTRGWESIVERMGGEPVSDAYLSFLVEEVRPFVDRHYPTLPDASNTFLMGSSMGGLISLYGVCQYPDLFAGAGCLSTHWPAGGNLLVDELAALLPPAGRHRFYFDYGTVGLDAEYEPFQQRMDRLLEQAGYRHGHDWLTRKFPGAAHNEAAWRARVADVIAFLVLGRVAGE | not soluble
MGSDKIHHHHHHMPNQVSKVNDLKHFFLHLIESGKLSHAYLFLGEDPREIHNLIAAISSRILREKTGDDVFENANLIEVKIPEGKKTLSVDQMRTVRDIFAEKSEHPQIAVIDDADKMTDSAANSILKFIEEPYDRQYIFLQARNRNRVLPTILSRVQLINIPKQKKSEISEQLVDKGIQEDEAIFISRISKSISQADDLLLDGFAINLKRSITEWLDEIFNRQEKSFAFVQSDLLNFVDTNEHQNIFNLALSSELSMRLEKAPNSVLADILDRWLVIYQRSRFTVSWQTMLESFTLEALRMVNGTEKFSNK | not soluble
MGSDKIHHHHHHMPPNFHADTPLAQRMRPTTLDTIIGQEHLLAVGAPLRRLVEQGHLPSIILHGEAGIGKTTIAMLLADAVGRPFHALSALNTGVKQLREVLDSKDSLSFESPVVFIDEIHRFNKAQQDALLGAVESGDITLIGATTENPSFSVNNALLSRCQVYRLEPLTPEQISAVLQRALLEDNVLKQLSIDLQAQQTISQLAHGDARKSLNLLELAIQTADTKQSPIIIDDALVARVAQTALVRYDKDGEQHYDIVSAMIKSVRGSDPDAALYWMARMLVGGEPADFIARRLVILASEDIGNANPNALLLADAALRSVQSIGMPEARIILGQVVVYLATSAKSNSTYNAINAAMSLAEKDASPVPLHLRNGVTKLMRQQGYGQDYVYPHNYPNHYYAQNYLPDKLIGTRFYEFADNQREQHSKQFVDWLKSQAASND | not soluble
MGSDKIHHHHHHMPQSDIFGKAYHEATKHSYLSVQLDPNYLDASTQPSAFKFYPKFYRRVKLNLDNPIHSFIWLTSAVTFEKVYNNVAYKLRVNPSAGALYPTEMYVQIRGMPKIVDGIYHLEVENNCLTLIYELIDDGLESYVIPTKCITGFIFLISSVYYRSSWKYKQRSLRYCLLDSGHHLGAVAASAYLHSRDIQLIFDFDKLALNTDLGFENKEFITGCAISGEIHEKQIRKLRLKVPFVCGTDYFEANQFIEDSYQATSVQPSHQQQLQQPCFDFEQDKFYQTVWNRRSIRRFRKEFISQEHYLYVLQLLQQPIPTESGEEIEIYSVIHRVEGMKSGLYKGANLVKAGDFSEHTGYLCVNQALARDCAVVLFFVSKYTSYQTAMQIAGFLGQRIYLGSNYVGIQCSGIGAFYDDETQEFLETHKDVLYATAIGT | not soluble
MGSDKIHHHHHHMPTILEHLAALFDKDMRAVLSNPRAISMIANPSARVQMAAVRRDRSVICFIEKPTEKVQLTAVRNAPHNIHFITSPSERVQLTVIGIRPSYVGFIPNPTEKVQLKAVEKRPECIFLLQKPAEKVQLTAVLKDPRYLSAIREPTEKVQLAAVQKNPECIRHIAEPTEKVQHMAVQRSPDIFRQIRQPEESVRLAAVQAKGENIRYVSAPSEAVQLAAVRNDPMNIRYIENPTEKVQSVVLNADRDAAPFISSPTEEIKRLAMEMYGLRLENAAGKEAAAARTSETSGNSGKKATEGVAKKPSAKQVKEAVEKLDSEIREINREYFQATYEAQYSDNAAERESEISAAGKNREKKLVKAYEKFNSAAVPERKECNVGKIVKELRKERVAVENMKAGEWHSLMKGKAVQPPLVSGASGAAGKGSALMLARTPAGYALKAAGTINQASRQANAEM | not soluble
MGSDKIHHHHHHMPVQQLFYKTAVPVSAKRHGDLSISSGKTYAFARHTNSIPLTALEFGPAAGTHPIVFAGTGEDVVPAIIVGTREDENLAVDADGNWQGTYIPAFARRYPFIFSLDKDKNQFTLLVDEEFEGANRDGRGERLFDSEGEQTGYLKSVLKFLQDYQAGFARTQAFCKRLKELDLLVPMQAEFSLGAGQKRTLGGFQVVDREKLKALSGEVLADLCRKDELECIYLHLSSMRHFRQMLERANTEASEAEPETDAADVAEPMAET | not soluble
